Data taken from PMC9687798, “Atypical Substrates of the Organic Cation Transporter 1” (Biomolecules, 2022).
Several values for one entry are separate records, joined by “and”; a condition that tells them apart may be missing. Equal values may be shown once.

Key:
[1] = molecular target: T1, OCT3 (Homo sapiens, UniProt O75751); assay: Cellular uptake ratio, OCT3-overexpressing HEK293 cells vs empty vector; type: cell-based; settings: for OCT3 transport category: based on ratio uptake data at 1 µM
T1 construct: expressed in transfected cells; host or cells: HEK293, stably transfected; gift from Dr. Koepsell and Dr. Gorbulev (University of Würzburg)
T1 sequence (O75751 1-556): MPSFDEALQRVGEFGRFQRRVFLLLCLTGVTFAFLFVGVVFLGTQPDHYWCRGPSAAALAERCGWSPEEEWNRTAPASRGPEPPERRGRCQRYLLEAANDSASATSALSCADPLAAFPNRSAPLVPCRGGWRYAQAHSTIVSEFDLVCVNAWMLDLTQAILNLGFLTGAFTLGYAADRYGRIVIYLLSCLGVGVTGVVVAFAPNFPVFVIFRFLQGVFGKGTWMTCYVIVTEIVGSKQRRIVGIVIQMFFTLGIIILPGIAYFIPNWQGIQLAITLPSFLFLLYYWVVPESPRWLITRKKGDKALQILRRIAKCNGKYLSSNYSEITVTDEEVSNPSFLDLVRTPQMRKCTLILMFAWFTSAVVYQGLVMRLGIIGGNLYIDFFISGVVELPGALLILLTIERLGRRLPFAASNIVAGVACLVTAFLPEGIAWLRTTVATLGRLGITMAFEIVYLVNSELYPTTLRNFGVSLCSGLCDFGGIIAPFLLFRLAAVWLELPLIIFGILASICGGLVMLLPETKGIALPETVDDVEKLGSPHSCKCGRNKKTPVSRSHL
Procedure: (§1) The wild-type cell lines of OCT1 and OCT2, as well as the variant cell lines OCT1*2 and *3, were generated using the Flp-In system (Thermo Fisher Scientific, Darmstadt, Germany) as described in previous publications. The cell line overexpressing OCT3 was a kind gift from Dr. Koepsell and Dr. Gorbulev (University of Würzburg, Germany). Cells transfected with the empty pcDNA5/FRT vector were used for the transport experiments as a control cell line. All cells were cultured approximately up to passage 30.
(§2) Forty-eight hours before the transport experiments, 600,000 cells were plated on 12-well plates pre-coated with poly-D-lysine and incubated at 37 °C with 5% CO2. The prepared 12-well plate with cells was positioned on a heating plate pre-warmed to 37 °C. After removing the medium, the cells were washed with 37 °C HBSS+ (10 mM HEPES in Hank’s balanced salt solution, pH 7.4). Then, one pre-defined concentration of a substrate was added to each well. The incubation period was stopped by adding 2 mL of 4 °C HBSS+ and removing the cells from the heating plate. The cells were washed twice with 4 °C HBSS+. For cell lysis, the cells were incubated for 15 min with 500 µL of 80% acetonitrile (LGC Standards, Wesel, Germany), which contained a respective internal standard (Table 1).
(§3) For concentration-dependent transport, the cells were incubated with defined substrate concentrations (0.1, 1, 10, 30, 100, 300, 600, 1000 µM) for the respective pre-defined incubation times. […] The uptake by a transporter was normalised to the uptake by empty vector-transfected cells. […] The results of transport experiments were normalized to the total protein concentration per well. Total protein quantification was performed using a bicinchoninic acid assay with bovine serum albumin as standard.
(§4) The ratios of cellular uptake were calculated by dividing the total uptake of transporter-overexpressing cells by the total uptake into empty vector transfected cells. The concentration-dependent cellular net uptake was used for analysis of transport kinetics by subtracting for each substrate concentration the uptake of empty vector-transfected cells from the uptake of transporter-overexpressing cells. […] The intrinsic clearance Clint was expressed with the ratio of Vmax and KM.

[2] = system: hCMEC/D3; settings: BBB-representing cell line hCMEC/D3; cited from earlier work
[3] = molecular target: T2, human OCT1*1 (wild-type) (Homo sapiens, UniProt O15245); assay: Concentration-dependent uptake (transport kinetics) in HEK293 cells overexpressing OCT1 wild-type; settings: for Clint (±SEM): intrinsic clearance = ratio of Vmax and KM, OCT1 wild-type
T2 sequence (O15245 1-554): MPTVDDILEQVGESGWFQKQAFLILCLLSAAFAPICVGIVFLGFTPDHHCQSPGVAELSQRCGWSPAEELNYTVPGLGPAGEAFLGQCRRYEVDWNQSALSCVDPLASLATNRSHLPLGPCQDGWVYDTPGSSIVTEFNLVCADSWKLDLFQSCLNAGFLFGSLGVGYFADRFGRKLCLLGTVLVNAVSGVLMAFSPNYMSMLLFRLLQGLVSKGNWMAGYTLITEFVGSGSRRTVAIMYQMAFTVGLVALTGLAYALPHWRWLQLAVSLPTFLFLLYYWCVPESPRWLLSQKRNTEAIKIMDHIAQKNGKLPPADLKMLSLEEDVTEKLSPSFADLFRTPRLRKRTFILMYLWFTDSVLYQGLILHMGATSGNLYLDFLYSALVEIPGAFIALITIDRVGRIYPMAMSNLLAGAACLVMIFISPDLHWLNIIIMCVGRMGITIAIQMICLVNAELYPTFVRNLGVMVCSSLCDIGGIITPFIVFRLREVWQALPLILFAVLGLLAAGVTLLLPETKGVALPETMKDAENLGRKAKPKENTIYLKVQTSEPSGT

[4] = molecular target: T3, wild-type human OCT2 (Homo sapiens, UniProt O15244); assay: Cellular uptake ratio, OCT2-overexpressing HEK293 cells vs empty vector; type: cell-based; settings: based on ratio uptake data at 1 µM
T3 sequence (O15244 1-555): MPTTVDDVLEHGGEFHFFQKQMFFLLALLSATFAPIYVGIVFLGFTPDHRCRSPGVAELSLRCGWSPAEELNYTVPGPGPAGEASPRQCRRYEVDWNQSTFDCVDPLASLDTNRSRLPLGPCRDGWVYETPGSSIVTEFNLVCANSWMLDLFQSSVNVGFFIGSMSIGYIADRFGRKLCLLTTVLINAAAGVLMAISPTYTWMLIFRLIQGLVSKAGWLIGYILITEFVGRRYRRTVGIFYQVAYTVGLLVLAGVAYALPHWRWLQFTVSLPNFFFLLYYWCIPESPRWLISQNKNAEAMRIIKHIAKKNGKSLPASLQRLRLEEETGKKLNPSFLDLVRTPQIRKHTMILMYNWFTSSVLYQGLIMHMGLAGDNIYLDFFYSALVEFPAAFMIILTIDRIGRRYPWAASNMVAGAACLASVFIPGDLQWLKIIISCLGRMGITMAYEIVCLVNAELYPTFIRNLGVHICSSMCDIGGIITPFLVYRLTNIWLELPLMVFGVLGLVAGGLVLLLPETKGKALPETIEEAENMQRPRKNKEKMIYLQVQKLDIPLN
Procedure: as §1, §2, §3, §4

[5] = molecular target: T2, human OCT1*1 (wild-type); assay: Cellular uptake ratio, OCT1-overexpressing HEK293 cells vs empty vector; type: cell-based; settings: for OCT1 transport category: based on ratio uptake data at 1 µM
Procedure: as §1, §2, §3, §4

[6] = molecular target: OCT1 (wild-type, OCT1*1) (Homo sapiens, UniProt O15245); assay: Concentration-dependent uptake (transport kinetics) in HEK293 cells overexpressing OCT1 wild-type; settings: human, HEK293 cells stably overexpressing human OCT1*1 (wild-type), pH 7.4, KM (±SEM), net uptake (OCT1 minus empty vector), HEK293, 0.1-1000 µM substrate, Michaelis–Menten
[7] = human; no reference given; cited from earlier work
[8] = Human pharmacokinetic background values; type: in vivo; settings: blood, conversion of the KM of about 60 µM, read-out: blood concentration corresponding to KM
[9] = substrate: C[N+]1(C)CCC[C@H]1C(=O)[O-]; assay: cells, lysate or membranes; settings: other: net uptake (OCT1 minus empty vector), HEK293, 0.1-1000 µM substrate, Michaelis–Menten; pH 7.4
[10] = substrate: Nc1ccn([C@@H]2CS[C@H](CO)O2)c(=O)n1; assay: cells, lysate or membranes; settings: other: net uptake (OCT1 minus empty vector), HEK293, 0.1-1000 µM substrate, Michaelis–Menten; pH 7.4
[11] = substrate: Nc1nc(=O)n([C@@H]2CS[C@H](CO)O2)cc1F; assay: cells, lysate or membranes; settings: other: net uptake (OCT1 minus empty vector), HEK293, 0.1-1000 µM substrate, Michaelis–Menten; pH 7.4
[12] = substrate: Nc1nc2c(ncn2COCCO)c(=O)[nH]1; assay: cells, lysate or membranes; settings: other: net uptake (OCT1 minus empty vector), HEK293, 0.1-1000 µM substrate, Michaelis–Menten; pH 7.4
[13] = substrate: COc1cc(Cc2cnc(N)nc2N)cc(OC)c1OC; assay: cells, lysate or membranes; settings: other: net uptake (OCT1 minus empty vector), HEK293, 0.1-1000 µM substrate, Michaelis–Menten; pH 7.4
[14] = substrate: C[C@H]1COc2c(N3CCN(C)CC3)c(F)cc3c(=O)c(C(=O)O)cn1c23; assay: cells, lysate or membranes; settings: other: net uptake (OCT1 minus empty vector), HEK293, 0.1-1000 µM substrate, Michaelis–Menten; pH 7.4
[15] = substrate: N[C@@H](Cc1ccc(O)c(O)c1)C(=O)O; assay: cells, lysate or membranes; settings: other: net uptake (OCT1 minus empty vector), HEK293, 0.1-1000 µM substrate, Michaelis–Menten; pH 7.4
[16] = substrate: Nc1ccn([C@H]2CC[C@@H](CO)O2)c(=O)n1; assay: cells, lysate or membranes; settings: other: net uptake (OCT1 minus empty vector), HEK293, 0.1-1000 µM substrate, Michaelis–Menten; pH 7.4
[17] = substrate: CNS(=O)(=O)Cc1ccc2[nH]cc(CCN(C)C)c2c1; assay: cells, lysate or membranes; settings: other: net uptake (OCT1 minus empty vector), HEK293, 0.1-1000 µM substrate, Michaelis–Menten; pH 7.4
[18] = substrate: N=C(N)c1ccc(OCCCCCOc2ccc(C(=N)N)cc2)cc1; assay: cells, lysate or membranes; settings: other: net uptake (OCT1 minus empty vector), HEK293, 0.1-1000 µM substrate, Michaelis–Menten; pH 7.4
[19] = substrate: C[C@](N)(Cc1ccc(O)c(O)c1)C(=O)O; assay: cells, lysate or membranes; settings: other: net uptake (OCT1 minus empty vector), HEK293, 0.1-1000 µM substrate, Michaelis–Menten; pH 7.4
[20] = substrate: CCCCC[C@H](O)/C=C/[C@H]1[C@H](O)CC(=O)[C@@H]1C/C=C\CCCC(=O)O; assay: cells, lysate or membranes; settings: pH 7.4
[21] = other: net uptake (OCT1 minus empty vector), HEK293, 0.1-1000 µM substrate, Michaelis–Menten

Molecule: Nc1nnc(-c2cccc(Cl)c2Cl)c(N)n1 [Lamotrigine, lamotrigine]
- OCT3 transport category [1]: +/− (poor transport with a Clint < 5 or ratio between 1–2 with statistical significance (p < 0.05))
- Km [2]: 62 µM
- Clint (±SEM) [3]: 2.77 ± 5.66 µL/mg Protein/min

Molecule: CNC(=C[N+](=O)[O-])NCCSCc1ccc(CN(C)C)o1 [Ranitidin, ranitidine]
- OCT3 transport category [1]: 0 (no transport by OCT1, OCT2, and OCT3 occurred (i.e., no kinetic parameters or uptake ratio <2 without significance))
- OCT2 transport category [4]: + (good substrates of OCTs when the intrinsic clearance is between 5–15 or the ratio is 2–10)
- OCT1 transport category [5]: ++ (very good substrates of OCTs that have an intrinsic clearance >15 or show an uptake ratio >10)
- Vmax (±SEM) ([3]; net uptake (OCT1 minus empty vector), HEK293, 0.1-1000 µM substrate, Michaelis–Menten): 1047 ± 123 pmol/mg Protein/min
- Km [6]: 54.5 ± 7.2 µM

Molecule: CNS(=O)(=O)Cc1ccc2[nH]cc(CCN(C)C)c2c1 [Sumatriptan, sumatriptan]
- uptake by OCT3 (normalised to empty vector) ([1]; 1 µM substance): relevant uptake
- OCT3 transport category [1]: + (good substrates of OCTs when the intrinsic clearance is between 5–15 or the ratio is 2–10)
- typical human maximum blood concentration [7]: about 30 µg/L
- Km [8]: ~17.8 µg/mL
- OCT2 transport category [4]: ++ (very good substrates of OCTs that have an intrinsic clearance >15 or show an uptake ratio >10)
- uptake ratio by OCT1 (normalised to empty vector) ([5]; 1 µM and 100 µM substance): up to 30
- OCT1 transport category [5]: ++ (very good substrates of OCTs that have an intrinsic clearance >15 or show an uptake ratio >10)
- Clint (±SEM) [3]: 36.8 ± 7.32 µL/mg Protein/min

B1: human OCT1*1 (wild-type) (Homo sapiens) (protein)
chain: MPTVDDILEQVGESGWFQKQAFLILCLLSAAFAPICVGIVFLGFTPDHHCQSPGVAELSQRCGWSPAEELNYTVPGLGPAGEAFLGQCRRYEVDWNQSALSCVDPLASLATNRSHLPLGPCQDGWVYDTPGSSIVTEFNLVCADSWKLDLFQSCLNAGFLFGSLGVGYFADRFGRKLCLLGTVLVNAVSGVLMAFSPNYMSMLLFRLLQGLVSKGNWMAGYTLITEFVGSGSRRTVAIMYQMAFTVGLVALTGLAYALPHWRWLQLAVSLPTFLFLLYYWCVPESPRWLLSQKRNTEAIKIMDHIAQKNGKLPPADLKMLSLEEDVTEKLSPSFADLFRTPRLRKRTFILMYLWFTDSVLYQGLILHMGATSGNLYLDFLYSALVEIPGAFIALITIDRVGRIYPMAMSNLLAGAACLVMIFISPDLHWLNIIIMCVGRMGITIAIQMICLVNAELYPTFVRNLGVMVCSSLCDIGGIITPFIVFRLREVWQALPLILFAVLGLLAAGVTLLLPETKGVALPETMKDAENLGRKAKPKENTIYLKVQTSEPSGT
- Km [9]: 881 ± 910 µM
- Km [10]: 232 ± 43.0 µM
- Km [11]: 1123 ± 335 µM
- Vmax [11]: 0.0069 µmol/min/mg
- Vmax/Km [11]: 6.15 µL/min/mg
- Km [12]: 142 ± 189 µM
- Km [13]: 4.78 ± 1.24 µM
- Km [14]: 3326 ± 1458 µM
- Km [15]: 363 ± 163 µM
- Km [16]: 1194 ± 193 µM
- Vmax [16]: 0.00307 µmol/min/mg
- Vmax/Km [16]: 2.57 µL/min/mg
- Km [17]: 60 µM and 58.9 ± 5.1 µM
- Vmax [17]: 0.00217 µmol/min/mg
- Vmax/Km [17]: 36.8 µL/min/mg
- Km [18]: 124 ± 136 µM
- Km [19]: 647 ± 335.6 µM
- Vmax [19]: 0.00384 µmol/min/mg
- Vmax/Km [19]: 5.94 µL/min/mg
- Km ([20]; other: OCT1 wild-type, rounded in discussion): 1000 µM
- Km [20, 21]: 1177 ± 744 µM
- Vmax [20, 21]: 0.00412 µmol/min/mg
- Vmax/Km [20, 21]: 3.5 µL/min/mg
